Substitutions are numbered along the chain they refer to. Like-named read-outs stand apart in the source and are kept apart here.
B1: chimeric anti-human PD-L1 antibody Mab 3-16 (antibody, human IgG1, kappa, V domains shown)
VH: DVQLVESGGGLVQPGGSRKLSCAASGFTFGGFGMHWVRQAPEKGLEWVAYITGDSSTIYYADRVRGRFTISRDNPRNILFLQMTSLGSEDTAMYYCVRGPPGTWAYWGQGTLVTVSA
VL: DIVLTQSPASLAVSLGQRATFSCRASESVEFYGTTLVQWYQQRPGQPPKLLIYGASNVESGVPARFTGSGSGTDFSLNIHPVEEDDIAMYFCQQIRKVPWTFGGGTKLEIRR
notes: Mouse variable domains on human IgG1 / kappa constant regions; also called parent antibody Mab 3-16
B2: chimeric anti-human PD-L1 antibody Mab 3-14 (antibody, human IgG1, kappa, V domains shown)
VH: QVQLQQSGAELVKPGTSVKLSCKASGYTFSMYYMFWVKQRPGQGLEWIGQINPSNGRTNFNEKFKSKATLTVDKSSTTAYMQLSSLTSEDSAVYYCTREISYDEFAYWGQGTLVTVSA
VL: DVVMTQTPLSLPVSLGDQASISCRSSQSLVHSNGNTYLHWYLQKPGQSPKLLIYRVSNRFSGVPDRFSGSGSGTDFTLKISRVEAEDLGIYFCSQSAHLPYTFGGGTKLEIKR
notes: Mouse variable domains on human IgG1 / kappa constant regions
B3: chimeric anti-human PD-L1 antibody Mab 3-18 (antibody, human IgG1, kappa, V domains shown)
VH: EVHLQESGPSLVKPSQTLSLTCSVTGDSITSGYWNWIRQFPGNKLEYMGYVSYSGSTYYNPSLKSRISITRDTSKNQYYLQLSSVTTEDTATYYCANYYGDNWPFPLDYWGQGTSVIVSS
VL: DIVMTQAAPSVPVTPGESVSISCRSNKSLLHSNGNTYLYWFLQRPGQSPQLLIYRMSNLASGVPDRFSGSGSGTAFTLTISRVEAEDVGVYYCMQHLEYPFTFGGGTKLEIER
notes: as for B2
B4: chimeric anti-human PD-L1 antibody Mab 3-17 (antibody, human IgG1, kappa, V domains shown)
VH: B3 VH
VL: DIVMTQSPATLSVTPGDRVSLSCRASQSINGNLHWFQQKSHESPRLLIKYASQSISGIPSRFSGSGSGSDFTLRINSVEPEDVGVYYCQNGHGFPYTFGGGTKLEIKR
notes: as for B2
B5: humanized anti-human PD-L1 antibody Hum-5 (antibody, human IgG1, kappa, V domains shown)
VH: EVQLVESGGGLVQPGGSLRLSCAASGFTFGGFGMHWVRQAPGKGLEWVSYITGDSSTIYYADRVRGRFTISRDNAKNSLYLQMNSLRAEDTAVYYCVRGPPGTWAYWGQGTLVTVSS
VL: EIVLTQSPATLSLSPGERATLSCRASESVEFYGTTLVQWYQQKPGQAPRLLIYGASNVESGIPARFSGSGSGTDFTLTISSLEPEDFAVYYCQQIRKVPWTFGQGTKVEIKR
B6: humanized anti-human PD-L1 antibody Hum-6 (antibody, human IgG1, kappa, V domains shown)
VH: B5 VH
VL: B5 VL with A47P
B7: humanized anti-human PD-L1 antibody Hum-7 (antibody, human IgG1, kappa, V domains shown)
VH: B5 VH
VL: B5 VL with Y91F
B8: chimeric anti-human PD-L1 antibody Mab 2-04 (antibody, human IgG1, kappa, V domains shown)
VH: QVQLQQSGAELARPGASVKMSCKASGYTFTDYAMHWIKQRPGQGLEWIGFIIPSGDHTDYNQNFKDRATLTADKSSNTAYMQLTSLTPDDSAVYFCARGHGFHLYVMDYWGQGTSVTVSS
VL: DIVMTQSPATLSVTPGDGVSLSCRASQSIADYLHWYQQKSHESPRLLIKYASQSISGIPSRFSGSGSGSDFTLSISSVEPEDVGVYFCQNGHSFPPTFGTGTKLELKR
notes: as for B2
B9: chimeric anti-human PD-L1 antibody Mab 1-01 (antibody, human IgG1, kappa, V domains shown)
VH: EVQLQQSGPELVKPGASVKMSCKASGYSFSGYFLNWVKQSHGKSLEWIGRINPSNDDTVYSQKFKDRATLSLDRSSGTVHMELRSLTSEDSAVYYCARFGHASWYFDVWGAGTTVTVSS
VL: QIVLTQSPAIMSASPGEKVTMTCSARSSVIYMSWYQQKPGSSPRLLIYDTSHLASGVPVRFSGSGSGTFYSLIISRVEAEDAATYYCQQWSTYPLTFGAGTRLELNR
notes: as for B2
B10: chimeric anti-human PD-L1 antibody Mab 1-02 (antibody, human IgG1, kappa, V domains shown)
VH: B9 VH with F106L
VL: B9 VL with V29I, P39T, Y70F, V77M, N106K
notes: as for B2

Tests used:
[1] = molecular target: T1, Europium-conjugated human PD-L1 (human, UniProt Q9NZQ7 19-238, limits assumed, Europium conjugate (site not stated)); assay: HTRF competition assay: Europium-human PD-L1 with Alexa-647-conjugated Mab 3-16 as competitor, unlabelled Mab 3-16 titrated
T1 construct: also called Europium-human PD-L1; PD-L1 (HTRF donor protein)
T1 sequence (Q9NZQ7 19-238 limits assumed): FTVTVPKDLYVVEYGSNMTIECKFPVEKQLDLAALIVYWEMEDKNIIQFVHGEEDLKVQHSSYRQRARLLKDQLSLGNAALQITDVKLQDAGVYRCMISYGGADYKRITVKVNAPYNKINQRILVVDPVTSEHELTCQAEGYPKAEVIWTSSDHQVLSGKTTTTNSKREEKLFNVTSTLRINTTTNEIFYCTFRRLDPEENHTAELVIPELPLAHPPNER

[2] = molecular target: T2, human PD-L1 (Sino biological, 10084-H08H) (human, UniProt Q9NZQ7 19-238); assay: BLI (Octet Red), antibody captured on anti-human Fc sensors, human PD-L1 as analyte
T2 construct: Bought recombinant protein used as analyte in BLI
T2 sequence (Q9NZQ7 19-238 limits assumed): as above

[3] = molecular target: T2, human PD-L1 (Sino biological, …); assay: BLI (Octet Red), antibody captured on anti-human Fc sensors, human PD-L1 as analyte; Table 8 run, alongside humanized Hum-5/6/7
[4] = molecular target: T1, Europium-conjugated human PD-L1; assay: HTRF blocking assay: Europium-human PD-L1 with Alexa-647 human PD-1 as the blocked ligand, antibody titrated
[5] = molecular target: T2, human PD-L1 (Sino biological, …); assay: BLI (Octet Red), antibody captured on anti-human Fc sensors, human PD-L1 as analyte; remark: listed apart in the source
[6] = molecular target: T3, cynomolgus PD-L1 (Sino biological, 90251-C08H) (cynomolgus, UniProt G7PSE7 19-238); assay: BLI (Octet Red), antibody captured on anti-human Fc sensors, cynomolgus PD-L1 as analyte
T3 construct: Bought recombinant protein used as analyte in BLI; not shown: C-terminal polyhistidine tag of the bought product (Sino Biological 90251-C08H)
T3 sequence (G7PSE7 entry or part of it C08H C08H limits assumed): as the sequence (Q9NZQ7 19-238 limits assumed) above, with A33T, A34S, S62N, R68Q, Q82R, F173L, T185A, T192I, H215L counted along it

[7] = molecular target: human PD-L1 on cells (Raji cell line expressing human PD-L1; human PBMCs) (human, UniProt Q9NZQ7 19-290); assay: cell-based or functional assay
Chain of human PD-L1 on cells (Raji cell line expressing human PD-L1; human PBMCs) (Q9NZQ7 19-290): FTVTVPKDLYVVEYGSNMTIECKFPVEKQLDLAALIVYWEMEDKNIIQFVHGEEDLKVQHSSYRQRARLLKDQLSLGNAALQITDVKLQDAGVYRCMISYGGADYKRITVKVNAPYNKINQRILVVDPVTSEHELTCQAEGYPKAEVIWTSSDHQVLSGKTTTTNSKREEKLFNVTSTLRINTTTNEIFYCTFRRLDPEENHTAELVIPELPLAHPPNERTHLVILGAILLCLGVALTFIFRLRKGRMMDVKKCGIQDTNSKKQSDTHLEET

[8] = molecular target: T1, Europium-conjugated human PD-L1; assay: HTRF competition assay: Europium-human PD-L1 with Alexa-647-conjugated Mab 3-16 as competitor, unlabelled Mab 3-16 titrated; remark: listed apart in the source
[9] = molecular target: T1, Europium-conjugated human PD-L1; assay: HTRF competition assay: Europium-human PD-L1 with Alexa-647-conjugated Mab 3-16 as competitor, unlabelled antibody titrated
[10] = molecular target: T1, Europium-conjugated human PD-L1; assay: HTRF blocking assay: Europium-human PD-L1 with Alexa-647 human PD-1 as the blocked ligand, antibody titrated; remark: listed apart in the source

Binder | koff [2] [s⁻¹] | kon [2] [M⁻¹ s⁻¹] | IC50 (read off the curve) [4] [µg/mL] | Kd [5] [pM] | koff [5] [s⁻¹] | kon [5] [M⁻¹ s⁻¹] | Kd [6] [pM] | koff [6] [s⁻¹] | kon [6] [M⁻¹ s⁻¹] | Kd [2] [pM] | IC50 (read off the curve) [9] [µg/mL] | other results
B1 | 1.19e-07 | 286000 | ~0.2 | 146 | 6.17e-05 | 423000 | 863 | 8.34e-05 | 96700 | – | – | IC50 (read off the curve) [1]: ~0.2 µg/mL; Kd [3]: < 1 pM; EC50(nM), IL-2 production by SEB stimulated human PBMCs [7]: 5.41 nM; IC50 (read off the curve) [8]: ~0.2 µg/mL
B2 | – | – | ~0.2 | 124 | 4.05e-05 | 327000 | – | – | – | – | – | –
B3 | – | – | ~0.2 | 1160 | 0.000408 | 351000 | – | – | – | – | – | –
B4 | – | – | ~0.2 | 1500 | 0.000626 | 417000 | – | – | – | – | – | –
B5 | 3.92e-05 | 310000 | – | – | – | – | 915 | 8.65e-05 | 94500 | 126 | ~0.1 | –
B6 | < 1e-07 | 292000 | – | – | – | – | 2.08 | 1.33e-07 | 63900 | < 1 | ~0.1 | –
B7 | 1.28e-07 | 302000 | – | – | – | – | ≤ 1.1 | < 1e-07 | 73100 | < 1 | ~0.1 | –
B8 | – | – | – | 279 | 0.000241 | 864000 | – | – | – | – | – | IC50 (read off the curve) [10]: ~0.3 µg/mL
B9 | – | – | – | 13000 | – | – | – | – | – | – | – | –
B10 | – | – | – | 16000 | – | – | – | – | – | – | – | –

From patent US20260015423A1 (STAIDSON BIOPHARMA, published 2026)
